Assay results as given in the supplement of paper PMC10065799, “High-throughput profiling of sequence recognition by tyrosine kinases and SH2 domains using bacterial peptide display” (eLife, 2023).

Assays:
c-Src SH2 = experiment: SH2 binding enrichment of the phosphorylated peptide, bacterial display (enrichment ratio); higher = better substrate or ligand; peptides without Tyr show the background
Grb2 SH2 = Grb2 SH2 (UniProt P62993); experiment: as above
SHP2-C SH2 = experiment: as above
c-Src = experiment: phosphorylation enrichment, bacterial display (enrichment ratio); higher = better substrate or ligand; peptides without Tyr show the background
Fes = Fes (UniProt P07332); experiment: as above
Chain of Fes (P07332 whole entry, looked up): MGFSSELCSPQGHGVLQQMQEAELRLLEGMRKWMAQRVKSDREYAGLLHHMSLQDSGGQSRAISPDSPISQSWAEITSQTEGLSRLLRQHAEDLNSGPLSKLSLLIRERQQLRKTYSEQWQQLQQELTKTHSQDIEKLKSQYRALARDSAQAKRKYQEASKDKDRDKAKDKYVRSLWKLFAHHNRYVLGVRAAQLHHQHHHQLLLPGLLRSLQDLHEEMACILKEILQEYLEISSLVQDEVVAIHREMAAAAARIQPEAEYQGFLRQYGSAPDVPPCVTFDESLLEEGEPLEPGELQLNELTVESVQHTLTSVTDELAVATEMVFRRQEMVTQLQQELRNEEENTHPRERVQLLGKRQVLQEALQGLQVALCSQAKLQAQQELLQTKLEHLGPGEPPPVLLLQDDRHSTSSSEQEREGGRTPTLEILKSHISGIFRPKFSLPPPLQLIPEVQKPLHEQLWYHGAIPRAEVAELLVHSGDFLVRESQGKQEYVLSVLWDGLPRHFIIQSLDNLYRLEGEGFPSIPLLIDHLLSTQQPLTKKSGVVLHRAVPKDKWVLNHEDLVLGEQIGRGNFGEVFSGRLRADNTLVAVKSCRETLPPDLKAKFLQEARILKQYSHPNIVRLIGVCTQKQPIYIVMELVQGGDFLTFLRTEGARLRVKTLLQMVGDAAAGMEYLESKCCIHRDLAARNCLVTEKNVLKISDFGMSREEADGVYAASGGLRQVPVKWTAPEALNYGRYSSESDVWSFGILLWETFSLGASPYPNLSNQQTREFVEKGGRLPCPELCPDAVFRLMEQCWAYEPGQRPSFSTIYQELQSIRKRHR

FGFR3 = FGFR3 (UniProt P22607); experiment: as above
Fyn = Fyn (UniProt P06241); experiment: as above
Chain of Fyn (P06241 whole entry, looked up): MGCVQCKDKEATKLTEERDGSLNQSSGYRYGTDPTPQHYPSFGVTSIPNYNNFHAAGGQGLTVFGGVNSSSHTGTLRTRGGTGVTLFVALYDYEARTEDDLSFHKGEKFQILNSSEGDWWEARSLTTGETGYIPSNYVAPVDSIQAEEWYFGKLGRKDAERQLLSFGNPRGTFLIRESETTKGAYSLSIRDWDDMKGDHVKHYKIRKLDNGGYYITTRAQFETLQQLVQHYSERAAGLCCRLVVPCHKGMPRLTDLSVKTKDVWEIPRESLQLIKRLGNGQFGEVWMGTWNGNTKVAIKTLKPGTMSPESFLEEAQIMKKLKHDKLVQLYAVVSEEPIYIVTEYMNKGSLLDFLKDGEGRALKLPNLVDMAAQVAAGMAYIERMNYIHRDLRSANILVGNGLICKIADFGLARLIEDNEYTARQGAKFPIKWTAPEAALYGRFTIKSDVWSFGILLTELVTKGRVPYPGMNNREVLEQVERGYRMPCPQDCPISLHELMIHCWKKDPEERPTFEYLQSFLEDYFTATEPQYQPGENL

EPHB1 = EPHB1 (UniProt P54762); experiment: as above
Hck = Hck (UniProt P08631); experiment: as above
Chain of Hck (P08631 whole entry, looked up): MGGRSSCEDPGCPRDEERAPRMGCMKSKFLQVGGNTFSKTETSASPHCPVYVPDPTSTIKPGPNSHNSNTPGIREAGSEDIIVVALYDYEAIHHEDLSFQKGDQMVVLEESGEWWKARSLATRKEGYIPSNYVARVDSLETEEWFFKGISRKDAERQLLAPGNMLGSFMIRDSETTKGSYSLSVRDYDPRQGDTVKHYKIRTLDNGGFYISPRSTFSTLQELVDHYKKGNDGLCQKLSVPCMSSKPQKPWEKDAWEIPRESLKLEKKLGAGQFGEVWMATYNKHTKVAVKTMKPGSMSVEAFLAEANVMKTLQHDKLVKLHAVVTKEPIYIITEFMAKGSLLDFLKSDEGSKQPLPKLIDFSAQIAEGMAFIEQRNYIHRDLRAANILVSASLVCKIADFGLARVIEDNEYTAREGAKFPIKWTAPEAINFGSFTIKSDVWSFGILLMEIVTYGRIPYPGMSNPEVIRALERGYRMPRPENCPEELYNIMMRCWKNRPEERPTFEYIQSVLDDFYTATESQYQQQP

MERTK = MERTK (UniProt Q12866); experiment: as above
Chain of MERTK (Q12866 whole entry, looked up): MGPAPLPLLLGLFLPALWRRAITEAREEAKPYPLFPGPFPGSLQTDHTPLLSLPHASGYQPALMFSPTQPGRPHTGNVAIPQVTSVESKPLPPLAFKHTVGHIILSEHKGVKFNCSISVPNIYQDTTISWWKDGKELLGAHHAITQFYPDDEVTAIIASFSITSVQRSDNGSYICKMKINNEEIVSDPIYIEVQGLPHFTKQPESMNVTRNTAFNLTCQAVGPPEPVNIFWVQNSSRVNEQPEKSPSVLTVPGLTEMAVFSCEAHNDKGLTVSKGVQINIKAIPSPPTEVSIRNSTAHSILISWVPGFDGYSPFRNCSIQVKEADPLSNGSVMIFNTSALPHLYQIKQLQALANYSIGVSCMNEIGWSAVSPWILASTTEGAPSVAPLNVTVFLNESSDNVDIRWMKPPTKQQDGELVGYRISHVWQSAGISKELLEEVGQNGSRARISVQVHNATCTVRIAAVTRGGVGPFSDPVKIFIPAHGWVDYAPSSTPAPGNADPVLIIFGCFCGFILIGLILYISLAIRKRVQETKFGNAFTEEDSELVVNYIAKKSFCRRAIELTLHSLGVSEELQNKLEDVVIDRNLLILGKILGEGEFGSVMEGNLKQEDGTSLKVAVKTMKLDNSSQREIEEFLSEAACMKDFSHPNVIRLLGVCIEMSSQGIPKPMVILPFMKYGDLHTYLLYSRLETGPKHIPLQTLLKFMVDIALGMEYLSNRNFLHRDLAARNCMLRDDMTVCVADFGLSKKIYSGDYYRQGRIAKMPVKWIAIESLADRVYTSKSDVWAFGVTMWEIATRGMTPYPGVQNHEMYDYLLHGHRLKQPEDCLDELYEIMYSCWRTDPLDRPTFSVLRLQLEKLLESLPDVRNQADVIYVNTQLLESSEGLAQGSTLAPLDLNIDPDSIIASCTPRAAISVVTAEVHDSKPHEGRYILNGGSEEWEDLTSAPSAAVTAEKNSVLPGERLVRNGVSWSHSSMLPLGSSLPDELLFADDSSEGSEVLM

EPHB2 = EPHB2 (UniProt P29323); experiment: as above
Chain of EPHB2 (P29323 whole entry, looked up): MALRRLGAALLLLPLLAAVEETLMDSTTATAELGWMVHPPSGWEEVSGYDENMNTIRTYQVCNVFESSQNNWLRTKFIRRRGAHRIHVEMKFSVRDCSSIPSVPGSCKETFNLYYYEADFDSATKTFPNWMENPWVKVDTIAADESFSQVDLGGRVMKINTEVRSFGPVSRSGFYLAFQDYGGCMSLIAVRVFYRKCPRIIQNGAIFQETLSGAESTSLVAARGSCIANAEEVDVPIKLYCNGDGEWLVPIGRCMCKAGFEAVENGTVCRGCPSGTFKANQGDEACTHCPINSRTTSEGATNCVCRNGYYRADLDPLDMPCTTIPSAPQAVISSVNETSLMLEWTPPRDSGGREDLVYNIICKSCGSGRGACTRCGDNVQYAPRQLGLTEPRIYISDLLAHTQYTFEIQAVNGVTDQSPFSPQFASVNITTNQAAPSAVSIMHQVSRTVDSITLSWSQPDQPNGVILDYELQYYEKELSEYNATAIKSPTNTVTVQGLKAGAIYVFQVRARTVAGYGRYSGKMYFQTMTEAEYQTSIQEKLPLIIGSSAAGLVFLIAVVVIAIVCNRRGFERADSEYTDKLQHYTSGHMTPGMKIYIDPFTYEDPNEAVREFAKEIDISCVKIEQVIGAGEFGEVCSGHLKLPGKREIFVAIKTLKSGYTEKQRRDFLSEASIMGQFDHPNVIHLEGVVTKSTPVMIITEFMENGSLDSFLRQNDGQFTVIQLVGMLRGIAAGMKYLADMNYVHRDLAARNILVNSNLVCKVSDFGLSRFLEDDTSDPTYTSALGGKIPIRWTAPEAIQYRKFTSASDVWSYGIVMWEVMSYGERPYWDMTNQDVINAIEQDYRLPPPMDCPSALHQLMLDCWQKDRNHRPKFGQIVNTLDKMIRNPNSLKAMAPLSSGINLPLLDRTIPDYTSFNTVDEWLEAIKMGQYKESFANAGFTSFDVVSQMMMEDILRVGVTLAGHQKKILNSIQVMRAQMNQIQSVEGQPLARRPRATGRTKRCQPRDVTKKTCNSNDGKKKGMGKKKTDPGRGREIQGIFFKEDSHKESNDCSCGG

Jak2 = Jak2 (UniProt O60674); experiment: as above
FGFR1 = FGFR1 (UniProt P11362); experiment: as above
Chain of FGFR1 (P11362 whole entry, looked up): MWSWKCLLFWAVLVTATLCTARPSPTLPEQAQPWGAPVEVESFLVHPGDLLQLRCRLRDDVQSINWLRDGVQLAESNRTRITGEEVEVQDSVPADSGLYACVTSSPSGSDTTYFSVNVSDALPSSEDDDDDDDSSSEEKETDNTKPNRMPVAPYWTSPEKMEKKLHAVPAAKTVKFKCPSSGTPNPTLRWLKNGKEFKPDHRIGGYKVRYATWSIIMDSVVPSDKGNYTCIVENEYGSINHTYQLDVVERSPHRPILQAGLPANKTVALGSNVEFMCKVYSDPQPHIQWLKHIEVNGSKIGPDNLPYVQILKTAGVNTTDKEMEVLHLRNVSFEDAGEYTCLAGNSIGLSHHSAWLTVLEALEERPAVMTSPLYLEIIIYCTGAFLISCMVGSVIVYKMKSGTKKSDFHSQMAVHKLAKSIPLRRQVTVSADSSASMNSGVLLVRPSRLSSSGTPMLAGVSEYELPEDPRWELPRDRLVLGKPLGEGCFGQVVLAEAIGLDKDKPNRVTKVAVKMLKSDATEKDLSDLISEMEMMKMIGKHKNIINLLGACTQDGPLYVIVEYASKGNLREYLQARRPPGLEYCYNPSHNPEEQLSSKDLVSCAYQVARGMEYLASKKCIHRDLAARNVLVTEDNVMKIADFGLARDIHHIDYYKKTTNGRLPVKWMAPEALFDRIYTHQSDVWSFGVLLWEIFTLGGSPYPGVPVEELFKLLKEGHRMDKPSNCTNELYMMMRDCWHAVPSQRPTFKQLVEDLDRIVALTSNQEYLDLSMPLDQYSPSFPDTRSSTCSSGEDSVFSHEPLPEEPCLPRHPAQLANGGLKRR

Fer (mouse) = experiment: as above
AncSZ = experiment: as above
c-Abl (mouse) = experiment: as above
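For SH2 binding enrichment of the phosphorylated peptide, bacterial display in this document: peptide library displayed on the E. coli surface as eCPX fusions, selected cells deep-sequenced, score is each peptide's frequency after selection divided by its frequency in the input.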
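For phosphorylation enrichment, bacterial display in this document: 11-residue human phosphosite peptides and single-mutation variants displayed on the E. coli surface, counted by deep sequencing, each peptide's frequency after selection divided by its frequency in the unselected input library; frequency after pTyr selection over input frequency; kinase dosed for 20-30% of maximal phosphorylation in three min.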

Chain of Grb2 SH2 (P62993 whole entry, looked up): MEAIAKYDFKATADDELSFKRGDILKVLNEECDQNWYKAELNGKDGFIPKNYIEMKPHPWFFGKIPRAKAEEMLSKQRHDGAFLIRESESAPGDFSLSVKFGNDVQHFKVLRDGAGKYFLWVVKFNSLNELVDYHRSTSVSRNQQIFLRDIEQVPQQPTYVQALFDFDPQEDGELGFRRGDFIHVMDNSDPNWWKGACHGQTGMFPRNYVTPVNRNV

| Sequence | SH2 binding enrichment (c-Src SH2) | SH2 binding enrichment (Grb2 SH2) | SH2 binding enrichment (SHP2-C SH2) | phosphorylation enrichment (c-Src) | phosphorylation enrichment (Fes) | phosphorylation enrichment (FGFR3) | phosphorylation enrichment (Fyn) | phosphorylation enrichment (EPHB1) | phosphorylation enrichment (Hck) | phosphorylation enrichment (MERTK) | phosphorylation enrichment (EPHB2) | phosphorylation enrichment (Jak2) | phosphorylation enrichment (FGFR1) | phosphorylation enrichment (Fer (mouse)) | phosphorylation enrichment (AncSZ) | phosphorylation enrichment (c-Abl (mouse)) |
| --- | --- | --- | --- | --- | --- | --- | --- | --- | --- | --- | --- | --- | --- | --- | --- | --- |
| GFQPEYGQPAG [SYP_Y278_D277E_YF] | 0.405 | 0.788 | 0.832 | 0.671 | 0.741 | 0.917 | 0.592 | 0.501 | 0.4 | 0.424 | 0.542 | 0.723 | 0.479 | 0.506 | 0.685 | 0.586 |
| GLTSTYAGIRK [ROBO1_Y932] | 1.28 | 0.895 | 14.7 | 1.52 | 0.66 | 0.372 | 1.46 | 0.303 | 6.69 | 0.497 | 0.492 | 0.548 | 0.342 | 0.521 | 0.525 | 0.724 |
| DGTGHYLCNAC [GATA5_Y208] | 0.45 | 0.83 | 0.658 | 0.421 | 0.763 | 0.416 | 0.396 | 0.61 | 0.45 | 0.398 | 0.445 | 0.681 | 0.456 | 0.458 | 0.625 | 0.595 |
| EKLIQYCQSKS [AKR1B1_Y199_G204S] | 0.609 | 0.964 | 0.755 | 0.448 | 0.807 | 0.642 | 0.475 | 0.584 | 0.46 | 0.395 | 0.588 | 0.562 | 0.459 | 0.476 | 0.679 | 0.638 |
| TMKSHYMELFD [BBS2_Y644_R643H_YF] | 7.06 | 0.824 | 1.48 | 0.431 | 0.966 | 0.72 | 0.51 | 0.764 | 0.601 | 0.893 | 0.582 | 0.772 | 0.708 | 0.547 | 1.1 | 0.572 |
| FMLFQYLKQIE [RPAP3_Y569_D564Y_YF] | 1.08 | 1.53 | 1.48 | 0.498 | 1.36 | 0.783 | 0.447 | 0.539 | 0.505 | 0.482 | 0.716 | 1.27 | 0.468 | 0.506 | 1.12 | 1.07 |
| RLFARYFQGDL [PDK3_Y337_YF] | 0.292 | 0.713 | 0.454 | 0.481 | 0.882 | 0.627 | 0.499 | 0.416 | 0.723 | 0.525 | 0.547 | 0.545 | 0.572 | 0.474 | 0.826 | 0.524 |
| SGGMDYGMVGG [TNRC6B_Y1382] | 0.401 | 0.765 | 0.765 | 1.95 | 0.574 | 0.494 | 2 | 0.471 | 0.702 | 0.384 | 0.806 | 0.517 | 0.404 | 0.389 | 0.571 | 0.52 |
| HVSISYDIPLT [GAB1_Y307_P311L] | 3.72 | 0.96 | 0.91 | 1.01 | 2.15 | 1.53 | 1.31 | 1.19 | 0.99 | 4.9 | 1.48 | 1.86 | 1.09 | 1.12 | 3.56 | 1.96 |
| EADRKYEEVAR [TPM3_Y163] | 18 | 1.08 | 0.794 | 0.625 | 1.46 | 0.895 | 0.58 | 0.764 | 0.663 | 0.598 | 0.742 | 1.19 | 0.637 | 0.712 | 1.29 | 1.08 |
| RVSSVYTRSTG [CCR5_Y339_A335V] | 0.517 | 1.17 | 1.1 | 0.853 | 1.22 | 0.945 | 1.1 | 0.945 | 1.13 | 0.665 | 0.867 | 1.02 | 0.936 | 0.984 | 1.18 | 0.873 |
| FCRIMYDIFPF [INTS13_Y67_YF] | 0.8 | 0.93 | 0.862 | 3 | 1.74 | 0.743 | 1.31 | 2.66 | 3.11 | 4.83 | 2.61 | 1.57 | 0.531 | 1.18 | 1.71 | 1.38 |
| SESSYYKSLNL [NGEF_Y289_A286S] | 0.678 | 0.767 | 0.623 | 0.586 | 0.756 | 0.841 | 0.657 | 0.503 | 0.627 | 0.913 | 0.57 | 0.852 | 1.01 | 0.624 | 0.876 | 0.561 |
| KELAPYDENRF [RPS19_Y48_W52R] | 0.605 | 0.896 | 1.39 | 0.577 | 1.36 | 0.79 | 0.485 | 0.594 | 0.512 | 0.5 | 0.553 | 1.05 | 0.48 | 0.579 | 1.05 | 0.983 |
| LPHVIYCRLWC [SMAD2_Y128_R133C] | 1.42 | 1.76 | 1.49 | 4.81 | 1.35 | 0.645 | 5.86 | 7.33 | 6.12 | 2.98 | 3.17 | 1.95 | 0.557 | 0.851 | 1.12 | 4.33 |
| QEMMEYRHQIQ [DES_Y324] | 0.485 | 1.22 | 0.579 | 1.12 | 2.13 | 1.04 | 0.559 | 0.93 | 0.902 | 0.762 | 0.833 | 2.03 | 0.677 | 0.303 | 2.04 | 1.86 |
| SPPPAFTPMSG [ERBB4_Y1056_Y1056F] | 0.364 | 0.67 | 0.615 | 0.442 | 0.441 | 0.465 | 0.305 | 0.349 | 0.469 | 0.461 | 0.416 | 0.496 | 0.402 | 0.439 | 0.597 | 0.45 |
| TLKDVYDDGKF [RPS6KA3_Y483_YF] | 0.433 | 0.781 | 0.566 | 0.625 | 1.04 | 0.66 | 0.548 | 0.542 | 0.66 | 0.515 | 0.513 | 0.655 | 0.614 | 0.488 | 0.988 | 0.549 |
| ALKKPYSVLFK [RPF2_Y59_G60S_YF] | 1.58 | 1.6 | 1.65 | 0.526 | 0.968 | 0.617 | 0.419 | 0.411 | 0.435 | 0.448 | 0.43 | 0.729 | 0.556 | 0.502 | 0.815 | 0.581 |
| DGMADYSDPSY [CDC5L_Y459] | 0.459 | 0.833 | 0.616 | 0.538 | 1.3 | 0.686 | 0.571 | 1.33 | 0.487 | 0.496 | 1.71 | 1.47 | 0.611 | 0.486 | 1.43 | 0.859 |
| LCRYGYANTSE [SI_Y1233] | 2.24 | 2 | 0.85 | 0.789 | 1.41 | 1.36 | 0.688 | 0.78 | 0.772 | 1.15 | 0.661 | 1.11 | 0.656 | 0.746 | 1.31 | 0.932 |
| KRGVSYILKLA [SERPINB1_Y84_A82V] | 0.763 | 1.28 | 0.797 | 0.412 | 1.6 | 0.676 | 0.426 | 0.504 | 0.558 | 0.446 | 0.557 | 1.34 | 0.534 | 0.524 | 1.4 | 0.768 |
| RHTRSYDYTEG [FGF7_Y56_M59T] | 1.5 | 0.864 | 0.841 | 0.476 | 0.918 | 0.546 | 0.635 | 0.407 | 0.602 | 0.514 | 0.369 | 0.587 | 0.488 | 0.477 | 0.521 | 0.414 |
| LYEDRYLLGPS [ASS1_Y87_T91P] | 0.626 | 0.69 | 0.662 | 1.5 | 1.67 | 1.16 | 2.3 | 3.52 | 4.13 | 0.899 | 1.4 | 0.812 | 1.2 | 5.42 | 1.2 | 0.683 |
| GDEEDYFEIPG [EGFR_opt_F_2015] | 0.706 | 0.875 | 0.632 | 0.628 | 1.22 | 5.08 | 0.504 | 0.571 | 0.532 | 0.532 | 0.723 | 1.21 | 4.57 | 0.5 | 2.75 | 0.78 |
| DRIVNYSRASV [ATP7A_Y1459_I1464V] | 0.533 | 0.766 | 0.706 | 0.468 | 0.79 | 0.535 | 0.423 | 0.482 | 0.45 | 0.574 | 0.438 | 0.732 | 0.467 | 0.449 | 0.702 | 0.563 |
| IDSTPYGQWYE [RPS8_Y109_R110G] | 0.849 | 0.703 | 0.607 | 3.33 | 1.18 | 0.701 | 2.59 | 0.596 | 1.37 | 0.526 | 0.612 | 0.984 | 0.741 | 1.13 | 1.12 | 0.719 |
| SDYYAYSPVQE [H6PD_Y449_R453Q] | 1.3 | 1.01 | 0.971 | 5.44 | 0.952 | 14.9 | 8.25 | 16.4 | 6.3 | 9.08 | 21.6 | 9.08 | 15.8 | 10.7 | 6.17 | 8.16 |
| LNLDTYQKRLR [PLA2G2D_Y126_R121L] | 0.39 | 0.797 | 0.63 | 0.442 | 0.613 | 0.518 | 0.672 | 0.44 | 0.518 | 0.511 | 0.42 | 0.389 | 0.69 | 0.336 | 0.517 | 0.502 |
